Consider one protein from PMC2920321, “Characterization of ftsZ Mutations that Render Bacillus subtilis Resistant to MinC” (PLoS ONE, 2010).

The series deals with the molecule itself. In words: sedimentation of polymers by ultracentrifugation; FtsZ 10 µM, pH 6.5 buffer, with ZapA (10 µM), without DEAE-dextran.

B1: FtsZ8 (FtsZ S219L) (natural protein, B. subtilis, UniProt P17865 1-382, looked up)
chain: MLEFETNIDGLASIKVIGVGGGGNNAVNRMIENEVQGVEYIAVNTDAQALNLSKAEVKMQIGAKLTRGLGAGANPEVGKKAAEESKEQIEEALKGADMVFVTAGMGGGTGTGAAPVIAQIAKDLGALTVGVVTRPFTFEGRKRQLQAAGGISAMKEAVDTLIVIPNDRILEIVDKNTPMLEAFREADNVLRQGVQGISDLIATPGLINLDFADVKTIMLNKGSALMGIGIATGENRAAEAAKKAISSPLLEAAIDGAQGVLMNITGGTNLSLYEVQEAADIVASASDQDVNMIFGSVINENLKDEIVVTVIATGFIEQEKDVTKPQRPSLNQSIKTHNQSVPKREPKREEPQQQNTVSRHTSQPADDTLDIPTFLRNRNKRG
notes: FtsZ, Bacillus subtilis, mutant ftsZ8; source: overexpression plasmid pSG5333 (Ptac-ftsZ8, derivative of pCXZ); purified essentially as described [21]
Take B1: the binding result is recorded as “binds”.
